Experimental data reported in US20120230990A1 (MERCK SERONO, published 2012).

Columns and labels:
[1] = target: T1, human IL-22RA on cells (HepG2 hepatoma cells, normal human keratinocytes, BaF3 cells transfected with human … (human, UniProt Q8N6P7 16-574)); test: cell-based or functional assay
T1 sequence: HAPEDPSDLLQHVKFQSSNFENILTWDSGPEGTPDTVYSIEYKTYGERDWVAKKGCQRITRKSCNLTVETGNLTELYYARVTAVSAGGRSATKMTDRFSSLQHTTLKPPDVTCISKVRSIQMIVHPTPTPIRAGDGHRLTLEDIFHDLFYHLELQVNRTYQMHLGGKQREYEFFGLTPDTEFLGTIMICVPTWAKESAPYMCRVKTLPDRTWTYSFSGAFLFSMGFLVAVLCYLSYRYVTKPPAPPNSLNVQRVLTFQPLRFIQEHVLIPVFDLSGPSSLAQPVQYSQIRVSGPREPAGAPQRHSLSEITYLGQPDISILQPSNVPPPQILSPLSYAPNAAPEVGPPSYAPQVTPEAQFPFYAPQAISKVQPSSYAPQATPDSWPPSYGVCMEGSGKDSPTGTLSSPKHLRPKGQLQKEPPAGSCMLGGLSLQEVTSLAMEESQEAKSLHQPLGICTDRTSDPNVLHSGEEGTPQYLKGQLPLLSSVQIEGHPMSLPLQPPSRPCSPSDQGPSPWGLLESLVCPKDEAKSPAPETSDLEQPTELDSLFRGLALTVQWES

[2] = target: T2, murine IL-22RA on cells (HEPA1-6 hepatoma cells, BaF3 cells transfected with murine IL-22RA and IL-10RB) (murine, UniProt Q80XZ4 16-581); test: cell-based or functional assay
T2 sequence (looked up): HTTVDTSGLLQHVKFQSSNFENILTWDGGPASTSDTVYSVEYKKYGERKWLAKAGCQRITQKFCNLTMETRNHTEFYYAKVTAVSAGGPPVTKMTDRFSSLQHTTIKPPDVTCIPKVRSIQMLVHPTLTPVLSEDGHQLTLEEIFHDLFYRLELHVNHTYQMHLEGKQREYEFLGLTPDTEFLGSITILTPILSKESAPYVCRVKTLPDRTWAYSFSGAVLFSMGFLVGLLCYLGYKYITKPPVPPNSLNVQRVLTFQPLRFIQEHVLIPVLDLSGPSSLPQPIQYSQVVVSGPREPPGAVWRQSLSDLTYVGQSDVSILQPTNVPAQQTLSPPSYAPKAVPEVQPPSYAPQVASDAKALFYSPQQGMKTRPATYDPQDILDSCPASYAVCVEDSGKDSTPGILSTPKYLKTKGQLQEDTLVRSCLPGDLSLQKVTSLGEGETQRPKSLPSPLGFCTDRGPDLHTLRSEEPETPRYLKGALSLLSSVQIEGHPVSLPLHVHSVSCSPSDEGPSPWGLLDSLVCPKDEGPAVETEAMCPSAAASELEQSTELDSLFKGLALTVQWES

- IC50, STAT3 phosphorylation assay in human HepG2 hepatoma cells stimulated with recombinant human IL-22 [1]: 0.0552 nM
- IC50, STAT3 phosphorylation assay in normal human keratinocytes stimulated with recombinant human IL-22 [1]: 0.061 nM
- IC50, proliferation assay in BaF3 cells transfected with human IL-22RA and IL-10RB, cultured with recombinant human IL-22 [1]: 0.317 nM
- fold potency against the mouse parental antibody 280.46.3.4, STAT3 phosphorylation assay in HepG2 cells [1]: ~5 fold
- fold potency against the mouse parental antibody 280.46.3.4, STAT3 phosphorylation assay in normal human keratinocytes [1]: ~9 fold
- fold potency against the mouse parental antibody 280.46.3.4, proliferation of human IL-22 receptor transfected BaF3 cells [1]: 1.7 fold
- IC50, STAT3 phosphorylation assay in murine HEPA1-6 hepatoma cells stimulated with recombinant murine IL-22 [2]: 2.1 nM
- IC50, proliferation assay in BaF3 cells transfected with murine IL-22RA and IL-10RB, cultured with recombinant murine IL-22 [2]: 0.137 nM
- fold potency against the mouse parental antibody 280.46.3.4, proliferation of mouse IL-22 receptor transfected BaF3 cells [2]: 6.2 fold
B1: 280.346.TSY (humanized anti-human IL-22RA antibody comprising 280.VH3-66-46 paired with 280.VK4-1-TSY, human IgG1/kappa) (antibody, V domains shown)
VH: EVQLVESGGGLVQPGGSLRLSCAASGYSITAEYMNWVRQAPGKGLEWIGEINPSTGTTTYNQKFKGRFTISVDQSKNTAYLQMNSLRAEDTAVYYCARFDAYFDYWGQGTLVTVSS
VL: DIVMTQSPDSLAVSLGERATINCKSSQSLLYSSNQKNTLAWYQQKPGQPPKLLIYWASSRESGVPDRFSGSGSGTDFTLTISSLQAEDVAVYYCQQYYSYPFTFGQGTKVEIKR
notes: Produced in CHO cells; also called 280.VH3-66-46/VK4-1-TSY; 280.VH3-66.46 paired with 280.IGKV4-1-TSY
